Source: the supplement of paper PMC12042874
± gives the uncertainty stated by the source.

assay: amyloid nucleation score (Sup35N fusion, yeast selection) (log enrichment); library NNK1; higher = more nucleation; inactive = no reads after selection
Procedure, shortened: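 Using DiMSum, nucleation scores were taken as the log enrichment of output over input reads, centred on the mode score of non-aggregating sequences. The input and output reads came from Illumina sequencing of plasmid inserts, with sequences under 100 input reads excluded. The yeast were psi-negative, expressed Sup35N fused to peptides of 20 random codons, were induced with 100 μM copper sulfate for 24 hours, and were grown 7 days at 30°C on medium lacking adenine and uracil.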

| Substance | amyloid nucleation score |
| --- | --- |
| SKSGLGYTGHLLVREREVVV | 0.474 ± 1 |
| CTVDMEGFGFSRIVVDRGRS | -0.118 ± 0.6 |
| GIWSNCKYVFSGIMSSYMVS | 0.739 ± 0.16 |
| FICRFDVHWHSGMFSLYPWC | 0.682 ± 0.47 |
| RLCPSCLVKWMTLWFVWIVR | 0.769 ± 0.41 |
| LAFDYLLKFLDCR | -0.47 ± 0.53 |
| FLLLCRSFFSARTILRCTMG | 0.072 ± 0.81 |
| RVRSSMCGALWARKFYRTHI | -0.116 ± 0.49 |
| FGWRISILLVPHRLFRGLPQ | -0.85 ± 1.9 |
| SKLLHMEWNQELDPSLSLLS | -1.14 ± 0.66 |
| WSHSILCIQSRSRIYPTHWL | 0.495 ± 0.29 |
| RGGNIVKHRLFGPDGGAYWK | -0.591 ± 0.79 |
| GHFRSASRKYALTV | -0.619 ± 0.51 |
| SMQSSVDYKRGAMTFI | 0.424 ± 0.69 |
| RDGIMYG | 0.505 ± 0.39 |
| NNTFGLGNFTDSFCNIRSEK | 0.572 ± 0.39 |
| SRVEWEDVYENVGGKGTSRE | -0.087 ± 0.44 |
| GYNWGFVHCSYRSSHFGSGF | 0.348 ± 0.26 |
| RTLFIRSLVYFVLSSFIFAV | -0.004 ± 0.36 |
| DPGVNALVLLILKTWDRDYE | -0.638 ± 0.69 |
| DTENPSYMNVNCYWRLLFSR | 0.669 ± 0.4 |
| TERFMYFKNLFVSSWTSHG | 1.51 ± 0.14 |
| HFLVMITRL | 5.15 ± 0.091 |
| LSIWFFVYVLVG | 0.043 ± 0.78 |
| NFELLPYLSLNWSHFFCSCF | 6.56 ± 0.061 |

| Substance | amyloid nucleation score |
| --- | --- |
| PNQVYGTAFCGDEKNRMRWK | 4.6 ± 0.079 |
| TWYLDFFSSPFLVGFSLSFG | 0.633 ± 0.49 |
| HIPYVYGPIIRGEATYTEGV | -0.29 ± 1.2 |
| RSFSECLMSGHTIFQFGMYM | 4.26 ± 0.14 |
| LYDCCYIFTYYGSRYLTQKS | -0.091 ± 0.27 |
| KIGLPGLCVW | 0.063 ± 0.54 |
| SLNSTFFCIEISVDDIEVLQ | -0.609 ± 0.52 |
| HSYCLLLWYG | -1.74 ± 1.9 |
| RIPRFLNSLSEYYYLDFHYG | 1.15 ± 0.23 |
| FDGFNFISWIVR | 2.06 ± 0.11 |
| SYNMTITACSNGFPEQRDT | 0.062 ± 0.73 |
| WLDHEISSELAGYPLWLSAN | 2.19 ± 0.17 |
| VSASLDGPLSVRKGTSKAWD | -0.043 ± 1.4 |
| DYPPIRALVSFDCCAVSTCL | 0.922 ± 0.93 |
| GSYLCLMTFFSLYEQHSCCC | inactive |
| RISSVT | 0.17 ± 0.86 |
| MDFDRCYSFRGMR | -0.13 ± 0.47 |
| REVWRLFILSRVVGYKVIL | 0.142 ± 0.22 |
| GYSGLLYVSRVVSYLIHFWV | 0.702 ± 0.47 |
| SLYAQVCWRSVEFYPRLFPE | 2.26 ± 0.12 |
| YSQCSRVNFWISAYCVNYIN | 7.03 ± 0.071 |
| ACHCNIFFHR | 6.325 ± 0.058 |
| SIVGWCICLREFSVRFSYAE | 5.48 ± 0.075 |
| ARGPLKSGINQNVCSCGTSI | 0.118 ± 1.5 |
| YDKFPTLVMGAKRSGWG | -0.761 ± 0.78 |

| Substance | amyloid nucleation score |
| --- | --- |
| NRYRCYDCTLVGRVSYS | -0.436 ± 0.29 |
| QMYYFRCGQFTQGGNTQWLW | 0.632 ± 0.39 |
| LYAALIIDYA | 0.681 ± 0.66 |
| IFISIVLLF | 4.8 ± 0.079 |
| WEKNFKIGESRCSV | -0.554 ± 1.1 |
| CGEIENRMVTEAVTALLLYD | 0.034 ± 0.41 |
| WWYSDMWMVSC | 2.34 ± 0.46 |
| VNSGVNCMTVFVVVSLLSCG | 2.98 ± 0.11 |
| IVFFWMMLVGLNRLGVNRVG | -0.846 ± 1.7 |
| GQMGPMKREDGVLFVVTREN | -0.255 ± 1.1 |
| NCHREFIHWVILNSGSSAHM | 1.94 ± 0.57 |
| ISRDNNQTGLMGGLERRTES | 0.533 ± 0.65 |
| CVRFDSVNCHHLF | 0.238 ± 0.24 |
| AAFTSSNYMFGFYFGLWVSN | 1.55 ± 0.45 |
| TFVYVKASLSSTIAASYVAQ | 1.34 ± 0.27 |
| ILMILNLRTTSPWDWNWVSV | 0.296 ± 0.83 |
| SYLMQSFDKLCAA | -0.033 ± 1.1 |
| LKYTVPGLISPGFLGVVDYV | -0.624 ± 0.34 |
| PNIEPCLSSFVSKSLDDPRT | -0.127 ± 0.37 |
| SVELGSGLMMWGTNSKLTVV | 0.649 ± 0.76 |
| LSYCVIG | inactive |
| YYRGCHLYSHHPLRGLLGGV | inactive |
| WRTARFSGKF | -0.048 ± 0.4 |
| QHHMVEIWPSDECVEWLVSS | -0.034 ± 0.22 |
| DCHVRCLRQV | 0.611 ± 0.35 |

| Substance | amyloid nucleation score |
| --- | --- |
| LSPSCCCFYVLGIVT | 3.57 ± 0.081 |
| RTICKVIFVSEVKSLFWNMS | 1.87 ± 0.41 |
| STTIPRVFGSTYNSYNVSIS | 0.384 ± 0.34 |
| HIMRDV | -1.13 ± 1.4 |
| RNIWNLVLDKNAHMNCFMTH | 0.087 ± 0.46 |
| IFCSNECVSTVDADTPGLSL | 9.289 ± 0.044 |
| PIFAVTKVQVMRPH | -1.94 ± 2.7 |
| NHIDGVIGY | 0.083 ± 0.61 |
| EQRVNLISVWIRGDLETPHG | 0.47 ± 0.73 |
| VSKLICVFTGSYRNLEGYRI | 0.041 ± 0.39 |
| LYFKSSRCR | 1.12 ± 0.52 |
| GSHNAR | 0.086 ± 0.97 |
| GAFWGFFFKCLSTTLNNSWL | inactive |
| FVCRFQYFSRYATNYFYVWC | inactive |
| GVVCCTANF | 5.68 ± 0.065 |
| CFEDRYSLRCGM | -0.397 ± 0.34 |
| HMWSESQIVGRLYVYRNIVV | 0.747 ± 0.81 |
| CVFYGFWYFGW | 0.145 ± 0.34 |
| TFRFSGYSLNISFKNCEHYV | inactive |
| CIRGGSIWLMGHNVREVC | 0.401 ± 0.49 |
| SELGVSSVRLERAFILGSWT | -1.63 ± 1 |
| RSVSLC | 0.907 ± 0.61 |
| MIQRGLVGKDSTHVI | -0.175 ± 0.57 |
| DLYGRLLNWNTPYKRRWKNR | -0.491 ± 0.46 |
| VVLCGDCFSLSLFWDCLWPF | 4.38 ± 0.078 |

| Substance | amyloid nucleation score |
| --- | --- |
| ETHLIGVCYNRCL | 0.643 ± 0.42 |
| LCWFWGYVISYREMIYAESV | inactive |
| SQAAGSVY | 0.026 ± 0.25 |
| LSSPLLS | 0.66 ± 0.44 |
| LWPTGSRLSDG | -0.354 ± 0.51 |
| LRRLSMA | inactive |
| FMRMFVIIKHHVEVRRPRFI | 0.413 ± 0.7 |
| RVGSFMVNPSSCMSYAFWLR | 0.443 ± 0.49 |
| YRSYTRNWTLTIPGCTLRSL | -1.93 ± 2.7 |
| WKVKLNGIG | 0.341 ± 0.28 |
| NFFFRMNIN | 2.18 ± 0.39 |
| VCGVRMVLALSRFVLSAINN | 0.177 ± 0.65 |
| FFILW | -0.75 ± 1.2 |
| MIQVPFKCPCKLTADLGGNW | inactive |
| NIVFMCMCGLDI | 0.895 ± 0.29 |
| FYGEGNFRGKTYVFTVPVVK | -1.21 ± 2.4 |
| IRGNVKETVIFFKTRFAFCW | 0.147 ± 0.73 |
| VSIGIISII | -0.663 ± 1.6 |
| HFFDCHNSIEVSLISSCVCV | 3.97 ± 0.065 |
| YVWLMH | 3.7 ± 0.11 |
| NNRHGYFNFCWWKEFLVKRE | inactive |
| VCRVMTSLNEGKLSAECVLV | 0.594 ± 0.32 |
| SSRNSAAFLNHFDADRGLLP | 1.53 ± 0.14 |
| DMRYSRSCYTGCTDYYTCLG | -0.546 ± 0.4 |
| YNGGGSYNWVWMGNSPVKTR | 0.969 ± 0.61 |

| Substance | amyloid nucleation score |
| --- | --- |
| YPSCAGVWFKHNRLFFV | 0.096 ± 0.79 |
| CYCFGQCWYDYVCIELLIGR | 5.06 ± 0.052 |
| LSNFLHCG | 0.907 ± 0.4 |
| GSVCHILVGWVAYMWVF | -1.18 ± 1.2 |
| IYFLR | -0.103 ± 0.42 |
| AVRVLPSLNVGAGMRQVVFT | 0.693 ± 0.5 |
| HLGLSNPFMMSFHV | -0.189 ± 0.34 |
| NEEGVIQSFILVDALVVQGL | 0.391 ± 0.39 |
| YERIPFLDSGTYGIYDWTAR | -0.372 ± 0.3 |
| VSRLEVPRFLCTLQSTLLSS | -0.123 ± 0.86 |
| GSVINGWRRYLFVISILLGL | -0.374 ± 0.32 |
| KKGVIGKG | -2.31 ± 1.6 |
| CCGMSGLSIGDGKNFMSGWV | 1.82 ± 0.45 |
| TGCHKS | 0.915 ± 0.97 |
| YCGMCVYLISYMATFNCYYY | 3.54 ± 0.1 |
| GNTSMILSPA | -0.511 ± 1.1 |
| NCHVT | -0.271 ± 0.29 |
| GASCTLISCLLLLHSAWSLS | 0.237 ± 0.59 |
| PSVTTS | -0.482 ± 0.58 |
| LSRDHCKNLNLNP | -0.084 ± 1.1 |
| NFKTSKWYESGRASRSS | -0.076 ± 0.41 |
| SFTWRQNQVGNA | 1.24 ± 0.4 |
| YLAQIELRLV | 0.053 ± 0.79 |
| CNTLDLMAFNSLYLSPVSTC | inactive |
| LKNTVHWTADHFRVTSP | -0.623 ± 0.67 |

| Substance | amyloid nucleation score |
| --- | --- |
| IMAGP | -0.624 ± 0.58 |
| YKGWYFFYVCFSKLSIGS | -0.305 ± 0.72 |
| CYAPSGLLNLPNASFS | -1.26 ± 1.5 |
| GDELKRVWYLGTLSRMRGTE | -0.574 ± 0.62 |
| GKSRS | 0.784 ± 0.49 |
| LVTFNDSQLSTWASLGLNS | -0.003 ± 0.46 |
| SMCNCDPSVALRSMY | -0.279 ± 0.25 |
| LVVFISRVFTNDITFRFANI | 0.675 ± 0.78 |
| FFKNLCSRGCLCSYGMVQTV | 0.396 ± 0.58 |
| LDRVSWSDRKSNGQ | 1.44 ± 0.41 |
| KREKEYFNERLPTDLSLQRC | -1.21 ± 0.66 |
| DLSFLRNCSLYSLLGVIG | inactive |
| FYMRSFLFDFQLFHVVGIWF | -0.929 ± 0.39 |
| EVLKVSHSF | -0.009 ± 0.46 |
| LPDIGCFPRTIGCMTQAECG | -0.381 ± 1 |
| VNCLLDQQYR | 0.746 ± 0.46 |
| ALRGVRVMWAKRS | -0.484 ± 0.88 |
| NLNFLFFQWSNIMVCHQNQV | 4.62 ± 0.057 |
| DMPFSDFMN | -0.096 ± 0.47 |
| ANMCISGAYNCVSVLCLRNR | 6.59 ± 0.047 |
| KTWLIG | 0.109 ± 0.54 |
| LVLGWRFIVPRVNLISLGFV | inactive |
| VSMFRRVASEALYRQPSMLA | 0.972 ± 0.36 |
